From the supplement of paper PMC9112550, “Optimization of the antimicrobial peptide Bac7 by deep mutational scanning” (BMC Biology, 2022) come the findings set out here.

The test system of the series is Escherichia coli TOP10. As to the kind of experiment: shrunken log2 fold change of peptide-encoding DNA abundance (4.5 h post-induction vs induction); higher = less antimicrobial activity (less host growth inhibition). As to conditions: time post-induction: 4.5 h; library: site-saturation at positions 5, 18, 19, 20.
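Also: peptides expressed intracellularly from a pBAD plasmid library in pooled LB shake-flask culture, induced with 0.3% L-arabinose, DNA abundance read by NGS, three biological replicates, DESeq2 with apeglm shrinkage.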

On to RRIRQRPPRLPRPRPRPHSDPRP, for which the “shrunken log2 fold change” value is 0.0233.

In the case of RRIRRRPPRLPRPRPRPLRTPRP, the “shrunken log2 fold change” value is 1.41.

On to RRIRIRPPRLPRPRPRPVPAPRP, for which the “shrunken log2 fold change” value came to 0.0984.

For the sequence RRIRLRPPRLPRPRPRPLWWPRP, the “shrunken log2 fold change” value worked out at 0.531.

On to RRIRQRPPRLPRPRPRPHCSPRP, for which the “shrunken log2 fold change” value is -0.104.

For RRIRRRPPRLPRPRPRPHTGPRP, the “shrunken log2 fold change” value was -0.105.

Consider RRIRKRPPRLPRPRPRPTAWPRP, for which the “shrunken log2 fold change” value was 1.13.

In the case of RRIRVRPPRLPRPRPRPKPSPRP, the “shrunken log2 fold change” value was found to be 0.313.

RRIRARPPRLPRPRPRPEILPRP: the “shrunken log2 fold change” value is 0.74.

For the sequence RRIRRRPPRLPRPRPRPKKWPRP, the “shrunken log2 fold change” value amounted to 0.114.

Consider RRIRIRPPRLPRPRPRPREHPRP, for which the “shrunken log2 fold change” value was -0.393.

On to RRIRHRPPRLPRPRPRPVILPRP, for which the “shrunken log2 fold change” value is -1.12.

With RRIRQRPPRLPRPRPRPKHAPRP, the “shrunken log2 fold change” value was determined as 0.401.

As for RRIRGRPPRLPRPRPRPWTFPRP, the “shrunken log2 fold change” value was -0.00633.

With RRIRSRPPRLPRPRPRPHGNPRP, the “shrunken log2 fold change” value is -0.00459.

With RRIRFRPPRLPRPRPRPCIGPRP, the “shrunken log2 fold change” value is -0.1.

Regarding RRIRPRPPRLPRPRPRPLQVPRP, the “shrunken log2 fold change” value was 0.013.

Turning to RRIRVRPPRLPRPRPRPMLPPRP, the “shrunken log2 fold change” value was 0.0351.

As for RRIRLRPPRLPRPRPRPGCNPRP, the “shrunken log2 fold change” value is -0.162.

In the case of RRIRERPPRLPRPRPRPCSCPRP, the “shrunken log2 fold change” value is -0.00783.

Turning to RRIRGRPPRLPRPRPRPIYFPRP, the “shrunken log2 fold change” value was -0.533.

For the sequence RRIRNRPPRLPRPRPRPRGPPRP, the “shrunken log2 fold change” value amounted to 0.893.

Turning to RRIRHRPPRLPRPRPRPYIWPRP, the “shrunken log2 fold change” value was -0.431.

As to RRIRHRPPRLPRPRPRPWTLPRP, the “shrunken log2 fold change” value is -0.00151.

As to RRIRRRPPRLPRPRPRPDRTPRP, the “shrunken log2 fold change” value was found to be 0.222.

Consider RRIRLRPPRLPRPRPRPKPLPRP, for which the “shrunken log2 fold change” value stood at 0.144.

RRIRPRPPRLPRPRPRPLWKPRP: the “shrunken log2 fold change” value turned out to be 0.0546.

Regarding RRIRNRPPRLPRPRPRPKSTPRP, the “shrunken log2 fold change” value was -0.271.

Consider RRIRKRPPRLPRPRPRPDQLPRP, for which the “shrunken log2 fold change” value was found to be 0.107.

Regarding RRIRMRPPRLPRPRPRPGKTPRP, the “shrunken log2 fold change” value stood at 0.769.

For RRIRDRPPRLPRPRPRPLEAPRP, the “shrunken log2 fold change” value stood at 0.679.

RRIRWRPPRLPRPRPRPSLDPRP: the “shrunken log2 fold change” value is -0.00135.

With RRIRARPPRLPRPRPRPFHCPRP, the “shrunken log2 fold change” value turned out to be 0.252.

Consider RRIRLRPPRLPRPRPRPVPEPRP, for which the “shrunken log2 fold change” value was found to be 0.161.

In the case of RRIRCRPPRLPRPRPRPQRGPRP, the “shrunken log2 fold change” value came to 0.337.

As to RRIRDRPPRLPRPRPRPVNVPRP, the “shrunken log2 fold change” value is -0.96.

Take RRIRLRPPRLPRPRPRPYVVPRP: the “shrunken log2 fold change” value was -0.481.

With RRIRKRPPRLPRPRPRPYSHPRP, the “shrunken log2 fold change” value was -0.134.

On to RRIRKRPPRLPRPRPRPRCCPRP, for which the “shrunken log2 fold change” value amounted to 0.491.

For RRIRSRPPRLPRPRPRPSVYPRP, the “shrunken log2 fold change” value is -0.81.

For the sequence RRIRNRPPRLPRPRPRPEYYPRP, the “shrunken log2 fold change” value is -0.0216.

Turning to RRIRGRPPRLPRPRPRPYMSPRP, the “shrunken log2 fold change” value came out at 0.0366.

RRIRYRPPRLPRPRPRPQRKPRP: the “shrunken log2 fold change” value is -0.263.

RRIRQRPPRLPRPRPRPEQCPRP: the “shrunken log2 fold change” value was -0.0442.

For the sequence RRIRWRPPRLPRPRPRPHRIPRP, the “shrunken log2 fold change” value was -0.225.

Regarding RRIRQRPPRLPRPRPRPCRDPRP, the “shrunken log2 fold change” value was found to be 0.0161.

Turning to RRIRFRPPRLPRPRPRPGSMPRP, the “shrunken log2 fold change” value was -0.255.

As for RRIRHRPPRLPRPRPRPINYPRP, the “shrunken log2 fold change” value was -0.248.

As to RRIRHRPPRLPRPRPRPYKNPRP, the “shrunken log2 fold change” value is -0.646.

For RRIRSRPPRLPRPRPRPLVVPRP, the “shrunken log2 fold change” value turned out to be 0.268.

In the case of RRIRERPPRLPRPRPRPNGFPRP, the “shrunken log2 fold change” value amounted to 0.0354.

As to RRIRQRPPRLPRPRPRPYDAPRP, the “shrunken log2 fold change” value is 0.0382.

Turning to RRIRVRPPRLPRPRPRPWWGPRP, the “shrunken log2 fold change” value was found to be 0.0115.

Consider RRIRQRPPRLPRPRPRPGPHPRP, for which the “shrunken log2 fold change” value was 0.0856.

As to RRIRDRPPRLPRPRPRPIVPPRP, the “shrunken log2 fold change” value is -0.142.

Turning to RRIRRRPPRLPRPRPRPAKIPRP, the “shrunken log2 fold change” value is 0.117.

On to RRIRYRPPRLPRPRPRPYYPPRP, for which the “shrunken log2 fold change” value is -0.293.

With RRIRNRPPRLPRPRPRPYWDPRP, the “shrunken log2 fold change” value is -0.54.

On to RRIRHRPPRLPRPRPRPEFCPRP, for which the “shrunken log2 fold change” value is -0.0591.

On to RRIRVRPPRLPRPRPRPWLMPRP, for which the “shrunken log2 fold change” value was -0.136.

With RRIRQRPPRLPRPRPRPFVKPRP, the “shrunken log2 fold change” value was -0.234.

Turning to RRIRTRPPRLPRPRPRPQNSPRP, the “shrunken log2 fold change” value was -1.19.

Take RRIRSRPPRLPRPRPRPPGTPRP: the “shrunken log2 fold change” value amounted to 0.396.

On to RRIRHRPPRLPRPRPRPLCNPRP, for which the “shrunken log2 fold change” value was -0.337.

As for RRIRFRPPRLPRPRPRPLHAPRP, the “shrunken log2 fold change” value turned out to be 0.0292.

As to RRIRMRPPRLPRPRPRPGNTPRP, the “shrunken log2 fold change” value is -0.246.

With RRIRVRPPRLPRPRPRPKKGPRP, the “shrunken log2 fold change” value amounted to 0.13.

On to RRIRYRPPRLPRPRPRPKGHPRP, for which the “shrunken log2 fold change” value is -0.145.

RRIRFRPPRLPRPRPRPRSPPRP: the “shrunken log2 fold change” value worked out at 1.06.

For RRIRLRPPRLPRPRPRPKGWPRP, the “shrunken log2 fold change” value was 0.342.

With RRIRARPPRLPRPRPRPNVPPRP, the “shrunken log2 fold change” value was found to be 0.0126.

For the sequence RRIRFRPPRLPRPRPRPCQAPRP, the “shrunken log2 fold change” value is -0.0302.

In the case of RRIRLRPPRLPRPRPRPERGPRP, the “shrunken log2 fold change” value came to 0.538.

Turning to RRIRKRPPRLPRPRPRPTAVPRP, the “shrunken log2 fold change” value worked out at 0.284.

As to RRIRSRPPRLPRPRPRPSEAPRP, the “shrunken log2 fold change” value amounted to 0.121.

RRIRWRPPRLPRPRPRPSGNPRP: the “shrunken log2 fold change” value is -0.0162.

For RRIRCRPPRLPRPRPRPMGWPRP, the “shrunken log2 fold change” value stood at 0.324.

Consider RRIRGRPPRLPRPRPRPTLQPRP, for which the “shrunken log2 fold change” value was found to be 0.779.

For RRIRRRPPRLPRPRPRPNMHPRP, the “shrunken log2 fold change” value worked out at 0.0848.

For the sequence RRIRVRPPRLPRPRPRPWITPRP, the “shrunken log2 fold change” value is -1.08.

Regarding RRIRWRPPRLPRPRPRPNAIPRP, the “shrunken log2 fold change” value was -0.123.

In the case of RRIRTRPPRLPRPRPRPDAIPRP, the “shrunken log2 fold change” value is -0.141.

With RRIRARPPRLPRPRPRPRAPPRP, the “shrunken log2 fold change” value turned out to be 1.01.

With RRIRIRPPRLPRPRPRPHSEPRP, the “shrunken log2 fold change” value was -0.13.

With RRIRMRPPRLPRPRPRPSPYPRP, the “shrunken log2 fold change” value is -0.0611.

Consider RRIRCRPPRLPRPRPRPQFGPRP, for which the “shrunken log2 fold change” value is -0.233.

Turning to RRIRPRPPRLPRPRPRPWLQPRP, the “shrunken log2 fold change” value was -0.064.

Take RRIRPRPPRLPRPRPRPKLNPRP: the “shrunken log2 fold change” value was determined as 0.0891.

As for RRIRFRPPRLPRPRPRPSINPRP, the “shrunken log2 fold change” value is -0.625.

For RRIRHRPPRLPRPRPRPSVQPRP, the “shrunken log2 fold change” value was -0.266.

Consider RRIRERPPRLPRPRPRPCADPRP, for which the “shrunken log2 fold change” value worked out at 0.0245.

Regarding RRIRARPPRLPRPRPRPTEKPRP, the “shrunken log2 fold change” value was determined as 0.413.

For the sequence RRIRERPPRLPRPRPRPILAPRP, the “shrunken log2 fold change” value was -0.349.

RRIRIRPPRLPRPRPRPESHPRP: the “shrunken log2 fold change” value was -0.0755.

As for RRIRMRPPRLPRPRPRPIRNPRP, the “shrunken log2 fold change” value worked out at 0.00101.

In the case of RRIRERPPRLPRPRPRPWAEPRP, the “shrunken log2 fold change” value came out at 0.0285.

Regarding RRIRTRPPRLPRPRPRPAAGPRP, the “shrunken log2 fold change” value was found to be 0.375.

For RRIRGRPPRLPRPRPRPTWRPRP, the “shrunken log2 fold change” value worked out at 0.673.

In the case of RRIRTRPPRLPRPRPRPRSLPRP, the “shrunken log2 fold change” value is 0.19.

Regarding RRIRGRPPRLPRPRPRPIRCPRP, the “shrunken log2 fold change” value was found to be 0.261.

With RRIRGRPPRLPRPRPRPKTSPRP, the “shrunken log2 fold change” value was 0.702.

Take RRIRIRPPRLPRPRPRPEWLPRP: the “shrunken log2 fold change” value was -0.216.

As for RRIRIRPPRLPRPRPRPIWAPRP, the “shrunken log2 fold change” value was -0.234.

Regarding RRIRARPPRLPRPRPRPRVPPRP, the “shrunken log2 fold change” value worked out at 0.428.

For RRIRGRPPRLPRPRPRPQPHPRP, the “shrunken log2 fold change” value stood at 0.582.

Consider RRIRKRPPRLPRPRPRPTEPPRP, for which the “shrunken log2 fold change” value is -0.0305.

As to RRIRHRPPRLPRPRPRPPYDPRP, the “shrunken log2 fold change” value was -0.0114.

As for RRIRFRPPRLPRPRPRPEEMPRP, the “shrunken log2 fold change” value is -0.00182.

As to RRIRTRPPRLPRPRPRPSAKPRP, the “shrunken log2 fold change” value came out at 0.227.

In the case of RRIRPRPPRLPRPRPRPNKNPRP, the “shrunken log2 fold change” value is -0.24.

RRIRARPPRLPRPRPRPNLLPRP: the “shrunken log2 fold change” value worked out at 0.00335.

Take RRIRMRPPRLPRPRPRPSLTPRP: the “shrunken log2 fold change” value was determined as 0.806.

For RRIRIRPPRLPRPRPRPLEIPRP, the “shrunken log2 fold change” value is -0.0939.

Turning to RRIRRRPPRLPRPRPRPNDSPRP, the “shrunken log2 fold change” value is -0.286.

With RRIRGRPPRLPRPRPRPIINPRP, the “shrunken log2 fold change” value came to 0.0488.

For RRIRCRPPRLPRPRPRPDSRPRP, the “shrunken log2 fold change” value came out at 0.0735.

On to RRIRWRPPRLPRPRPRPHQWPRP, for which the “shrunken log2 fold change” value is -0.0271.

In the case of RRIRSRPPRLPRPRPRPDIIPRP, the “shrunken log2 fold change” value is -0.16.

In the case of RRIRLRPPRLPRPRPRPAYGPRP, the “shrunken log2 fold change” value is -0.0437.

Turning to RRIRMRPPRLPRPRPRPRAMPRP, the “shrunken log2 fold change” value is 1.42.

As for RRIRKRPPRLPRPRPRPTTCPRP, the “shrunken log2 fold change” value came out at 0.273.

Take RRIRPRPPRLPRPRPRPLWMPRP: the “shrunken log2 fold change” value came to 0.0937.

For the sequence RRIRHRPPRLPRPRPRPTREPRP, the “shrunken log2 fold change” value turned out to be 0.0175.

Turning to RRIRYRPPRLPRPRPRPSMCPRP, the “shrunken log2 fold change” value is -0.24.

For RRIRTRPPRLPRPRPRPNANPRP, the “shrunken log2 fold change” value is -0.0879.
